Measurements taken from EP4803150A2 (Lyvgen Biopharma Holdings Limited, dated 2026).

Columns and labels:
[1] = target: T1, CD137 (human, UniProt Q07011 24-186); assay: FCM or ELISA, graded
T1 construct: Whole on GS-H2-huCD137 reporter cells in the reporter assays; also called 4-1BB

[2] = target: T2, CD19 (human, UniProt P15391 20-556); assay: CHO cells overexpressing CD19, graded
T2 construct: whole, on cells
T2 sequence (looked up): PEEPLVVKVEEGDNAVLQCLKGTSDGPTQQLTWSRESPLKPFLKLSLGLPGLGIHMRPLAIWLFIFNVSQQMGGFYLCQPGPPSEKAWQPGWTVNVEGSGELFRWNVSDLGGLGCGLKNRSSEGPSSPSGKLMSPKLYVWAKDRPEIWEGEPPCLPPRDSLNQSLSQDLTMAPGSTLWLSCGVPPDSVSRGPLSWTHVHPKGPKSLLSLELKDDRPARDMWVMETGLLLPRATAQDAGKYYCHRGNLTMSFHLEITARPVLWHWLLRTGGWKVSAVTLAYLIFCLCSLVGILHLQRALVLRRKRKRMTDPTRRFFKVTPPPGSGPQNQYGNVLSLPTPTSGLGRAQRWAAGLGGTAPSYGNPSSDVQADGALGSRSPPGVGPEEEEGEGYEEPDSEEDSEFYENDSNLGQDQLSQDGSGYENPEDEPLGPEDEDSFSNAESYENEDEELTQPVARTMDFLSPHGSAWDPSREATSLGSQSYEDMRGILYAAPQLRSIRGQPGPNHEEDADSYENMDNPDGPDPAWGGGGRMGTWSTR

B1: Ly2800 (multi-specific antibody)
chain 1: QVQLQQPGAELVKPGASVKMSCKASGYTFTSYNMHWVKQTPGRGLEWIGAIYPGNGDTSYNQKFKGKATLTADKSSSTAYMQLSSLTSEDSAVYYCARSTYYGGDWYFNVWGAGTTVTVSAASVAAPSVFIFPPSDEQLKSGTASVVCLLNNFYPREAKVQWKVDNALQSGNSQESVTEQDSKDSTYSLSSTLTLSKADYEKHKVYACEVTHQGLSSPVTKSFNRGECGGGGSGGGGSGGGGSGGGGSEVQLVESGGGLVQPGGSLRLSCAASGFTFSTYAMNWVRQAPGKGLEWVGRIRSKYNNYATYYADSVKGRFTISRDDSKNSLYLQMNSLKTEDTAVYYCVRHGNFGNSYVSWFAYWGQGTLVTVSSGGGGSDKTHTCPPCPAPELLGPSVFLFPPKPKDTLMISRTPEVTCVVVDVSHEDPEVKFNWYVDGVEVHNAKTKPREEQYNSTYRVVSVLTVLHQDWLNGKEYKCKVSNKALGAPIEKTISKAKGQPREPQVYTLPPSREEMTKNQVSLWCLVKGFYPSDIAVEWESNGQPENNYKTTPPVLDSDGSFFLYSKLTVDKSRWQQGNVFSCSVMHEALHNHYTQKSLSLSPGKGGGGSGGGGSGGGGSGGGGSQVQLVQSGAEVKKPGASVKVSCKASGYTFAGFEMHWVRQAPGQGLEWMGAIDPKTGGTDYNQKFKDRVTMTRDTSISTAYMELSRLRSDDTAVYYCARDLGYFDVWGQGTLVTVSS
chain 2: QVQLQQSGAELVRPGSSVKISCKASGYAFSSYWMNWVKQRPGQGLEWIGQIWPGDGDTNYNGKFKGKATLTADESSSTAYMQLSSLASEDSAVYFCARRETTTVGRYYYAMDYWGQGTTVTVSSASTKGPSVFPLAPSSKSTSGGTAALGCLVKDYFPEPVTVSWNSGALTSGVHTFPAVLQSSGLYSLSSVVTVPSSSLGTQTYICNVNHKPSNTKVDKKVEPKSCGGGGSGGGGSGGGGSGGGGSQAVVTQEPSLTVSPGGTVTLTCRSSTGAVTTSNYANWVQQKPGQAPRGLIGGTNKRAPWTPARFSGSLLGGKAALTITGAQAEDEADYYCALWYSNLWVFGGGTKLTVLGGGGSDKTHTCPPCPAPELLGPSVFLFPPKPKDTLMISRTPEVTCVVVDVSHEDPEVKFNWYVDGVEVHNAKTKPREEQYNSTYRVVSVLTVLHQDWLNGKEYKCKVSNKALGAPIEKTISKAKGQPREPQVYTLPPSREEMTKNQVSLSCAVKGFYPSDIAVEWESNGQPENNYKTTPPVLDSDGSFFLVSKLTVDKSRWQQGNVFSCSVMHEALHNHYTQKSLSLSPGKGGGGSGGGGSGGGGSGGGGSDIQMTQSPSSLSASVGDRVTITCRASQDIRSNLNWYQQKPGGAVKLLIYYTSRLHSGVPSRFSGSGSGTDYTLTISSLQPEDFATYFCQQSEKLPRTFGGGTKVEIR
chain 3: QIVLSQSPAILSASPGEKVTMTCRASSSVSYIHWFQQKPGSSPKPWIYATSNLASGVPVRFSGSGSGTSYSLTISRVEAEDAATYYCQQWTSNPPTFGGGTKLEIKSSASTKGPSVFPLAPSSKSTSGGTAALGCLVKDYFPEPVTVSWNSGALTSGVHTFPAVLQSSGLYSLSSVVTVPSSSLGTQTYICNVNHKPSNTKVDKKVEPKSC
chain 4: not shown
notes: CD19/CD20/CD3/CD137
B1: binds [1]; binds [2].
